Source: patent US11079398B2, “Method for measurement of peptidic degradation products of a proteolytic cascade in blood samples” (ATTOQUANT DIAGNOSTICS GMBH, priority 2012, dated 2021)

Test system: renin-angiotensin system (RAS)
Test: RSSE-Fingerprinting: blood incubated at 37° C. with added agents, LC-MS/MS quantification of angiotensin peptides
Assay type: biochemical, human
Conditions: for shift of RSSE-Fingerprint: 5 μg/ml enzyme added prior to incubation
Procedure: Blood samples were collected and anti-coagulated with standardised heparin tubes (BD). As indicated in FIGS. 3A-3C, plasma separation has been done for the respective samples before the incubation to reach steady state equilibrium.
Following plasma separation by centrifugation at 3000 rcf for 10 minutes at 4° C., […] of plasma was applied onto an activated and equilibrated SEP-PAK™ C18 cartridge. Sample matrix components were removed by washing three times with 1 ml water. Bound analytes were then eluted with 1 ml of methanol. Eluates were evaporated to dryness and reconstituted in 10% acetonitril/90% water supplemented with 0.1% formic acid followed by subjection to LC-MS/MS analysis.
A vacuum manifold has been used for sample processing. • 1. Activation: EtOH abs. • 2. Equilibration: 2×1 ml H2O • 3. Loading: 0.2-1 ml stabilised plasma • 4. Washing: 3×1 ml H2O • 5. Elution: 1 ml MeOH Quantification and Signal Integration
MRM chromatograms were integrated using Analyst 1.5.1 software provided by Applied Biosystems. The threshold for the quantification limit was set at a signal-to-noise ratio of 10. Integration signals not reaching this ratio were set to zero. Analyte signals were related to internal standard signals and concentration was calculated from initially spiked amounts of internal standards.

Molecule	shift of RSSE-Fingerprint	steady state equilibrium Ang 1-10 concentration, addition of ACE compared to ACE2 (5 μg/ml enzyme, FIG. 2B1)
NEP: recombinant neutral endopeptidase (neprilysin), purchased from R&D Systems (protein, UniProt P08473 2-750, looked up) Neprilysin: GKSESQMDITDINTPKPKKKQRWTPLEISLSVLVLLLTIIAVTMIALYATYDDGICKSSDCIKSAARLIQNMDATTEPCTDFFKYACGGWLKRNVIPETSSRYGNFDILRDELEVVLKDVLQEPKTEDIVAVQKAKALYRSCINESAIDSRGGEPLLKLLPDIYGWPVATENWEQKYGASWTAEKAIAQLNSKYGKKVLINLFVGTDDKNSVNHVIHIDQPRLGLPSRDYYECTGIYKEACTAYVDFMISVARLIRQEERLPIDENQLALEMNKVMELEKEIANATAKPEDRNDPMLLYNKMTLAQIQNNFSLEINGKPFSWLNFTNEIMSTVNISITNEEDVVVYAPEYLTKLKPILTKYSARDLQNLMSWRFIMDLVSSLSRTYKESRNAFRKALYGTTSETATWRRCANYVNGNMENAVGRLYVEAAFAGESKHVVEDLIAQIREVFIQTLDDLTWMDAETKKRAEEKALAIKERIGYPDDIVSNDNKLNNEYLELNYKEDEYFENIIQNLKFSQSKQLKKLREKVDKDEWISGAAVVNAFYSSGRNQIVFPAGILQPPFFSAQQSNSLNYGGIGMVIGHEITHGFDDNGRNFNKDGDLVDWWTQQSASNFKEQSQCMVYQYGNFSWDLAGGQHLNGINTLGENIADNGGLGQAYRAYQNYIKKNGEEKLLPGLDLNHKQLFFLNFAQVWCGTYRPEYAVNSIKTDVHSPGNFRIIGTLQNSAEFSEAFHCRKNSYMNPEKKCRVW	shifted as expected	–
ACE: recombinant RAS enzyme Angiotensin Converting Enzyme, purchased from R&D Systems (protein, UniProt P12821 30-1306, looked up) Angiotensin-converting enzyme: LDPGLQPGNFSADEAGAQLFAQSYNSSAEQVLFQSVAASWAHDTNITAENARRQEEAALLSQEFAEAWGQKAKELYEPIWQNFTDPQLRRIIGAVRTLGSANLPLAKRQQYNALLSNMSRIYSTAKVCLPNKTATCWSLDPDLTNILASSRSYAMLLFAWEGWHNAAGIPLKPLYEDFTALSNEAYKQDGFTDTGAYWRSWYNSPTFEDDLEHLYQQLEPLYLNLHAFVRRALHRRYGDRYINLRGPIPAHLLGDMWAQSWENIYDMVVPFPDKPNLDVTSTMLQQGWNATHMFRVAEEFFTSLELSPMPPEFWEGSMLEKPADGREVVCHASAWDFYNRKDFRIKQCTRVTMDQLSTVHHEMGHIQYYLQYKDLPVSLRRGANPGFHEAIGDVLALSVSTPEHLHKIGLLDRVTNDTESDINYLLKMALEKIAFLPFGYLVDQWRWGVFSGRTPPSRYNFDWWYLRTKYQGICPPVTRNETHFDAGAKFHVPNVTPYIRYFVSFVLQFQFHEALCKEAGYEGPLHQCDIYRSTKAGAKLRKVLQAGSSRPWQEVLKDMVGLDALDAQPLLKYFQPVTQWLQEQNQQNGEVLGWPEYQWHPPLPDNYPEGIDLVTDEAEASKFVEEYDRTSQVVWNEYAEANWNYNTNITTETSKILLQKNMQIANHTLKYGTQARKFDVNQLQNTTIKRIIKKVQDLERAALPAQELEEYNKILLDMETTYSVATVCHPNGSCLQLEPDLTNVMATSRKYEDLLWAWEGWRDKAGRAILQFYPKYVELINQAARLNGYVDAGDSWRSMYETPSLEQDLERLFQELQPLYLNLHAYVRRALHRHYGAQHINLEGPIPAHLLGNMWAQTWSNIYDLVVPFPSAPSMDTTEAMLKQGWTPRRMFKEADDFFTSLGLLPVPPEFWNKSMLEKPTDGREVVCHASAWDFYNGKDFRIKQCTTVNLEDLVVAHHEMGHIQYFMQYKDLPVALREGANPGFHEAIGDVLALSVSTPKHLHSLNLLSSEGGSDEHDINFLMKMALDKIAFIPFSYLVDQWRWRVFDGSITKENYNQEWWSLRLKYQGLCPPVPRTQGDFDPGAKFHIPSSVPYIRYFVSFIIQFQFHEALCQAAGHTGPLHKCDIYQSKEAGQRLATAMKLGFSRPWPEAMQLITGQPNMSASAMLSYFKPLLDWLRTENELHGEKLGWPQYNWTPNSARSEGPLPDSGRVSFLGLDLDAQQARVGQWLLLFLGIALLVATLGLSQRLFSIRHRSLHRHSHGPQFGSEVELRHS	shifted as expected	lower
APN: recombinant aminopeptidase N, purchased from R&D Systems (protein, UniProt P15144 2-967, looked up) Aminopeptidase N: AKGFYISKSLGILGILLGVAAVCTIIALSVVYSQEKNKNANSSPVASTTPSASATTNPASATTLDQSKAWNRYRLPNTLKPDSYRVTLRPYLTPNDRGLYVFKGSSTVRFTCKEATDVIIIHSKKLNYTLSQGHRVVLRGVGGSQPPDIDKTELVEPTEYLVVHLKGSLVKDSQYEMDSEFEGELADDLAGFYRSEYMEGNVRKVVATTQMQAADARKSFPCFDEPAMKAEFNITLIHPKDLTALSNMLPKGPSTPLPEDPNWNVTEFHTTPKMSTYLLAFIVSEFDYVEKQASNGVLIRIWARPSAIAAGHGDYALNVTGPILNFFAGHYDTPYPLPKSDQIGLPDFNAGAMENWGLVTYRENSLLFDPLSSSSSNKERVVTVIAHELAHQWFGNLVTIEWWNDLWLNEGFASYVEYLGADYAEPTWNLKDLMVLNDVYRVMAVDALASSHPLSTPASEINTPAQISELFDAISYSKGASVLRMLSSFLSEDVFKQGLASYLHTFAYQNTIYLNLWDHLQEAVNNRSIQLPTTVRDIMNRWTLQMGFPVITVDTSTGTLSQEHFLLDPDSNVTRPSEFNYVWIVPITSIRDGRQQQDYWLIDVRAQNDLFSTSGNEWVLLNLNVTGYYRVNYDEENWRKIQTQLQRDHSAIPVINRAQIINDAFNLASAHKVPVTLALNNTLFLIEERQYMPWEAALSSLSYFKLMFDRSEVYGPMKNYLKKQVTPLFIHFRNNTNNWREIPENLMDQYSEVNAISTACSNGVPECEEMVSGLFKQWMENPNNNPIHPNLRSTVYCNAIAQGGEEEWDFAWEQFRNATLVNEADKLRAALACSKELWILNRYLSYTLNPDLIRKQDATSTIISITNNVIGQGLVWDFVQSNWKKLFNDYGGGSFSFSNLIQAVTRRFSTEYELQQLEQFKKDNEETGFGSGTRALEQALEKTKANIKWVKENKEVVLQWFTENSK	shifted as expected	–
